The series can be described thus: Standard protocol for determination of kcat and KM (continuous spectrophotometric assay, Acetyl CoA hydrolysis at 235 nm). Format: biochemical. Conditions: purified protein, about 23° C., 0.2 mM acetyl CoA; for Kcat: 20 mM HEPES pH 6.8, 10% ethylene glycol; for Km: pH 6.8, glyphosate 0.125 to 10 mM. In outline: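 KM from initial rates over 0.125–10 mM glyphosate, fitted by Lineweaver-Burke transformation of Michaelis-Menten; kcat/KM computed as kcat divided by KM. Continuous spectrophotometric read of acetyl-CoA hydrolysis at 235 nm.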

B1: SEQ ID NO: 493: GAT polypeptide (protein)
chain: MIEVKPINAEDTYELRHRILRPNQPIEVCMYETDLLRGAFHLGGFYGGKLISIASFHQAEHSDLQGQKQYQLRGMATLEGYRDQKAGSSLIRHAEQILRKRGADMLWCNARTSASGYYKKLGFSEQGEIFETPPVGPHILMYKRIT
modifications: 4_1B10
notes: GAT polypeptide
B1 showed a Kcat of 1.285 s⁻¹.

B2: SEQ ID NO: 499: GAT polypeptide (protein)
chain: MIEVKPINAEDTYELRHKILRPNQPLEVCMYETDLLRGAFHLGGFYRGKLISIASFHQAEHSDLQGQKQYQLRGMATLEGYREQKAGSSLIRHAEQILRKRGADMLWCNARTSASGYYKKLGFSEQGEVFETPPVGPHILMYKRLT
modifications: 6_1F11
notes: GAT polypeptide
B2 registered a Kcat of 1.7627 s⁻¹.

B3: SEQ ID NO: 500: GAT polypeptide (protein)
chain: MLEVKPINAEDTYELRHKILRPNQPLEVCMYETDLLRGAFHLGGFYRGKLISIASFHQAEHSELQGQKQYQLRGMATLEGYRDQKAGSSLIRHAEQILRKRGADMLWCNARTSASGYYKKLGFSEQGEVFETPPVGPHILMYKRLT
modifications: 6_1F1
notes: GAT polypeptide
For B3, the Kcat is 1.164 s⁻¹.

B4: SEQ ID NO: 494: GAT polypeptide (protein)
chain: MIEVKPINAEDTYELRHRILRPNQPLEVCMYETDLLRGAFHLGGFYGGKLISIASFHQAEHSDLQGQKQYQLRGMATLEGYRDQKAGSSLIRHAEQILRKRGADMLWCNARTSASGYYKKLGFSEQGEIFETPPVGPHILMYKRIT
modifications: 5_2B3
notes: GAT polypeptide
In the case of B4, the Kcat was 0.9458 s⁻¹.

B5: SEQ ID NO: 497: GAT polypeptide (protein)
chain: MLEVKPINAEDTYELRHKILRPNQPLEVCMYETDLLRGAFHLGGFYRGKLISIASFHQAEHSDLQGQKQYQLRGMATLEGYRDQKAGSSLIRHAEQILRKRGADMLWCNARTSASGYYRKLGFSEQGEVFETPPVGPHILMYKRLT
modifications: 6_1A11
notes: GAT polypeptide
Consider B5, for which the Kcat stood at 0.759 s⁻¹.

B6: SEQ ID NO: 496: GAT polypeptide (protein)
chain: MLEVKPINAEDTYELRHKILRPNQPIEVCMYETDLLRGAFHLGGFYGGKLISIASFHQAEHSDLQGQKQYQLRGMATLEGYRDQKAGSSLIRHAEQILRKRGADMLWCNARTSASGYYKKLGFSEQGEIFETPPVGPHILMYKRLT
modifications: 5_2F10
notes: GAT polypeptide
As for B6, the Kcat is 0.912 s⁻¹.

B7: SEQ ID NO: 501: GAT polypeptide (protein)
chain: MLEVKPINAEDTYELRHKILRPNQPLEVCMYETDLLRGAFHLGGFYGGKLISIASFHQAEHSDLQGQKQYQLRGMATLEGYRDQKAGSSLIRHAEEILRKRGADMLWCNARTSASGYYKKLGFSEQGEVFDTPPVGPHILMYKKIT
modifications: 6_1H10
notes: GAT polypeptide
Take B7: the Kcat came out at 0.2835 s⁻¹.

B8: SEQ ID NO: 498: GAT polypeptide (protein)
chain: MIEVKPINAEDTYELRHKILRPNQPLEVCMYETDLLRGAFHLGGFYRGKLISIASFHQAEHSDLQGQKQYQLRGMATLEGYRDQKAGSSLIRHAEQILRKRGADMLWCNARTSASGYYKKLGFSEQGEVFETPPVGPHILMYKRIT
modifications: 6_1D5
notes: GAT polypeptide
Molecule B8 yielded a Kcat of 0.7153 s⁻¹.

B9: SEQ ID NO: 486: GAT polypeptide (protein)
chain: MLEVKPINAEDTYELRHRILRPNQPIEACMYESDLLRGAFHLGGYYRGKLISIASFHQAEHSELQGQKQYQLRGMATLEGYREQKAGSSLVKHAEEILRKRGADLLWCNARTSASGYYKKLGFSEQGEIFETPPVGPHILMYKRIT
modifications: 3_11A10
notes: GAT polypeptide
With B9, the Kcat was 2.2568 s⁻¹ and the Km was 170 µM.

B10: SEQ ID NO: 489: GAT polypeptide (protein)
chain: MIEVKPINAEDTYELRHRILRPNQPIEACMYESDLLRGAFHLGGYYRGKLISIASFHQAEHSELQGQKQYQLRGMATLEGYREQKAGSSLIKHAEEILRKRGADLLWCNARTSASGYYKKLGFSEQGEIFETPPVGPHILMYKRIT
modifications: 3_6A10
notes: GAT polypeptide
Turning to B10, the Kcat came to 2.108 s⁻¹ and the Km is 660 µM.

B11: SEQ ID NO: 492: GAT polypeptide (protein)
chain: MLEVKPINAEDTYELRHRILRPNQPIEVCMYESDLLRGAFHLGGYYRGKLISIASFHQAEHSELQGQKQYQLRGMATLEGYREQKAGSSLIKHAEEILRKRGADLLWCNARTSASGYYKKLGFSEQGEIFETPPVGPHILMYKRIT
modifications: 3_8G11
notes: GAT polypeptide
The molecule B11 displayed a Kcat of 1.652 s⁻¹.

B12: SEQ ID NO: 490: GAT polypeptide (protein)
chain: MLEVKPINAEDTYELRHRILRPNQPIEACMYESDLLRGAFHLGGYYRGKLISIASFHQAEHPELQGQKQYQLRGMATLEGYREQKAGSSLIKHAEEILRKRGADLLWCNARTSASGYYKKLGFSEQGEVFETPPVGPHILMYKRIT
modifications: 3_6B1
notes: GAT polypeptide
As for B12, the Kcat is 4.3847 s⁻¹ and the Km is 430 µM.

B13: SEQ ID NO: 491: GAT polypeptide (protein)
chain: MLEVKPINAEDTYELRHRILRPNQPIEACMYESDLLRGAFHLGGYYGGKLISIASFHQAEHSDLQGQKQYQLRGMATLEGYREQKAGSSLIKHAEEILRKRGADLLWCNARTSASGYYKKLGFSEQGEIFETPPVGPHILMYKRIT
modifications: 3_7F9
notes: GAT polypeptide
Consider B13, for which the Kcat was determined as 3.2258 s⁻¹ and the Km was 290 µM.

B14: SEQ ID NO: 487: GAT polypeptide (protein)
chain: MLEVKPINAEDTYELRHRILRPNQPIEACMYESDLLRGAFHLGGFYRGKLISIASFHQAEHSELQGQKQYQLRGMATLEGYREQKAGSSLIKHAEEILRKRGADLLWCNARTSASGYYKKLGFSEQGEIFETPPVGPHILMYKRLT
modifications: 3_14F6
notes: GAT polypeptide
Take B14: the Kcat was 3.1405 s⁻¹ and the Michaelis constant (Km) was found to be 250 µM.

B15: SEQ ID NO: 488: GAT polypeptide (protein)
chain: MLEVKPINAEDTYELRHKILRPNQPLEVCMYETDLLRGAFHLGGYYGGKLISIASFHQAEHSELQGQKQYQLRGMATLEGYREQKAGSSLIKHAEEILRKRGADLLWCNARTSASGYYKKLGFSEQGEIFETPPVGPHILMYKRIT
modifications: 3_15B2
notes: GAT polypeptide
The molecule B15 gave a Kcat of 1.7355 s⁻¹.

B16: SEQ ID NO: 483: GAT polypeptide (protein)
chain: MLEVKPINAEETYELRHKILRPNQPLEACMYESDLLRGSFHLGGYYRGQLISIASFHQAEHSELEGQKQYQLRGMATLEGFREQKAGSTLIKHAEQILRKRGADMLWCNARTSAAGYYKKLGFSEHGEIFDTPPVGPHILMYKKLT
modifications: 1_5H5
notes: GAT polypeptide
Regarding B16, the Kcat is 3.57 s⁻¹ and the Km came to 510 µM.

B17: SEQ ID NO: 484: GAT polypeptide (protein)
chain: MIEVKPINAEETYELRHRILRPNQPIEACMYESDLLRGSFHLGGFYRGKLISIASFHQAEHSDLEGQKQYQLRGMATLEGYRDQKAGSTLIKHAEELLRKRGADMLWCNARTSAAGYYKRLGFSEHGEIYETPPVGPHILMYKKIT
modifications: 1_6F12
notes: GAT polypeptide
In the case of B17, the Kcat was 3.48 s⁻¹ and the Km is 14700 µM.

B18: SEQ ID NO: 485: GAT polypeptide (protein)
chain: MIEVKPINAEDTYELRHKILRPNQPIEACMYESDLLRGSFHLGGFYRGQLISIASFHQAEHSDLEGQKQYQLRGMATLEGYRDQKAGSSLIKHAEEILRKRGADLLWCNARTSAAGYYKRLGFSEQGEIFDTPPVGPHILMYKKIT
modifications: 1_6H6
notes: GAT polypeptide
For B18, the Kcat came out at 4.57 s⁻¹ and the Km came to 1050 µM.

B19: SEQ ID NO: 279: GAT polypeptide (protein)
chain: MIEVKPINAEDTYEIRHRILRPNQPLEACKYETDLLGGTFHLGGYYRGKLVSIASFHQAEHPELEGQKQYQLRGMATLEGYREQKAGSTLIRHAEELLRKKGADLLWCNARTSASGYYKKLGFSEQGEVYDIPPTGPHILMYKKLT
modifications: 10_3G5
notes: GAT polypeptide
Turning to B19, the Kcat came to 1.46 s⁻¹ and the Km came to 2000 µM.

B20: SEQ ID NO: 280: GAT polypeptide (protein)
chain: MIEVKPINAEDTYEIRHRILRPNQPLEACMYETDLLGGTFHLGGYYRGKLVSIASFHQAEHPELEGQKQYQLRGMATLEGYREQKAGSTLIRHAEELLRKKGADLLWCNARTSASGYYKKLGFSEQGEVYDIPPTGPHILMYKKLT
modifications: 10_4H7
notes: GAT polypeptide
B20: the Kcat was 1.87 s⁻¹ and the Km stood at 1700 µM.

B21: SEQ ID NO: 495: GAT polypeptide (protein)
chain: MLXVKPINAEDTYELRHKILRPNQPXEVCMYEXDLLRGAFHLGGFYRGKLISIASFHQAEHSDLQGQKQYQLRGMATLEGYRDQKAGSSLIKHAEQILRERGADMLWCNARTSASGYYKKLGFSEQGEVFDTPPVGPHILMYKRLT
modifications: X: residue not identified in the source; ends and bridges not checked
notes: GAT polypeptide
Turning to B21, the Kcat came to 1.257 s⁻¹.

B22: SEQ ID NO: 481: GAT polypeptide (protein)
chain: MLEVKPINAEDTYELRHRILRPNQPIEACMYETDLLRGSFHLGGFYRGQLISIASFHKAEHSDLEGQKQYQLRGMATLEGYREQKAGSTLIRHAEQILRKRGADMLWCNARTSAAGYYKRLGFSEQGEVFETPPVGPHILMYKRLT
modifications: 1_4D6
notes: GAT polypeptide
With B22, the Kcat came out at 2.28 s⁻¹ and the Km came out at 1400 µM.

B23: SEQ ID NO: 482: GAT polypeptide (protein)
chain: MIEVKPINAEDTYELRHRILRPNQPLEACMYETDLLRGSFHLGGFYRGKLISIASFHQAEHSDLQGQKQYQLRGMATLEGYREQKAGSTLIRHAEQLLRKRGADLLWCNARTSASGYYKRLGFSEHGEVFDTPPVGPHILMYKRLT
modifications: 1_4H1
notes: GAT polypeptide
Turning to B23, the Kcat amounted to 3.93 s⁻¹ and the Km worked out at 1200 µM.

These data come from patent US8008547B2, “Glyphosate-N-acetyltransferase (GAT) genes” (E.I. duPont de Nemours, priority 2000, dated 2011).
